Measurements taken from patent EP4768505A1 (Shenzhen Genocury Biotech Co., Ltd, dated 2026).

B1: anti-CD79B single-domain antibody JYB14 (VHH)
VHH: DVQLQESGGGLVQPGGSLSLTCTASISSLTIWVRAWHRQAPGKQRELVAAINSDGQTMYADSVKGRFTISRDNAKTTVSLQMDSLKPEDTAVYYCNVVTPNGQQYWGQGTQVTVSS
notes: Alpaca VHH from a phage library; ELISA detected with an anti-myc antibody; a myc tag is not described; not shown: His-tag protein at the C-terminal end
B2: anti-CD79B single-domain antibody JYB8 (VHH, not shown: small tags and cut ends)
VHH: DVQLQESGGGLMQPGGSLSLTCTASISSLSIWVRAWHRQAPGKQRELVAAINSDGQTMYADSVKGRFTISRDSAKTTVSLQMDSLKPEDTAVYYCNVVTPKGQQYWGQGTQVTVSS
B3: anti-CD79B single-domain antibody JYB10 (VHH)
VHH: DVQLQESGGGLVQPGGSLSLSCAASISSSSIWVRAWHRQAPGKQRELVAAINNDGQTMYADSVKGRFTISRDNAKTTVSLQMNSLKPEDTAVYYCNVVTPKGHQYWGQGTQVTVSS
notes: as for B1
B4: anti-CD79B single-domain antibody JYB11 (VHH)
VHH: DVQLQESGGGLVQPGGSLSLSCAASMSSPSLWVRAWHRQAPGKQRELVAAINSDGQTMYADSVKGRFTISRDNAKTLVSLQMDSLKPEDTAVYYCNVVTPRGQQYWGQGTQVTVSS
notes: as for B1
B5: anti-CD79B single-domain antibody JYB4 (VHH)
VHH: DVQLQESGGGLVQPGGSLRLSCAASGFAFSLYAMSWARQAPGKGLEWVSDIYGDDDSRRNYADSVKGRFTISRDNAKNTVYLQMTNLQPEDTALYYCGKGRDGTRWSAREYEYRGQGTQVTVSS
notes: Alpaca VHH from a phage library; not shown: His-tag protein at the C-terminal end

Legend:
Mouse CD79B antigen [1] = target: T1, Mouse CD79B antigen (mouse, UniProt P15530 26-158, limits assumed); assay: ELISA on coated antigen, anti-myc detection
T1 sequence (looked up): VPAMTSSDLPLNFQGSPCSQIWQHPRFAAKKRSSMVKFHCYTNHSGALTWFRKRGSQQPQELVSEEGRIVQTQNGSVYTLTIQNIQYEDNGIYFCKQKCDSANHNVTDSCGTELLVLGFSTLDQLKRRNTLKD

[2] = target: Human CD79B Protein, His Tag (MALS verified), Cat. No. #CDB-H52H3-1mg, ACRO (human) (UniProt P40259); assay: ELISA on coated antigen, anti-myc detection; 200ng antibody added
[3] = target: T2, Mouse CD79A+CD79B antigen (mouse) (UniProt P11911); assay: as above
T2 sequence (looked up) 1: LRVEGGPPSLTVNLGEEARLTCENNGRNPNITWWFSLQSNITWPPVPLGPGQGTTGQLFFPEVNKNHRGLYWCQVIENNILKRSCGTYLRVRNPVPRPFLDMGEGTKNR
T2 sequence (looked up) 2: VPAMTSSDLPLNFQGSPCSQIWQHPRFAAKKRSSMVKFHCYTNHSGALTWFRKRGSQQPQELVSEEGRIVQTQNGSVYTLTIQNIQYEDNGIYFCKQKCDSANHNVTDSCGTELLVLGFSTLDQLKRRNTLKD

[4] = target: Human CD79A+CD79B antigen (human) (UniProt P11912); assay: as above
BSA [5] = target: BSA (UniProt P02769); assay: ELISA on coated BSA control, anti-myc detection; 20ug antibody added
Sequence of BSA (P02769 25-607 limits assumed): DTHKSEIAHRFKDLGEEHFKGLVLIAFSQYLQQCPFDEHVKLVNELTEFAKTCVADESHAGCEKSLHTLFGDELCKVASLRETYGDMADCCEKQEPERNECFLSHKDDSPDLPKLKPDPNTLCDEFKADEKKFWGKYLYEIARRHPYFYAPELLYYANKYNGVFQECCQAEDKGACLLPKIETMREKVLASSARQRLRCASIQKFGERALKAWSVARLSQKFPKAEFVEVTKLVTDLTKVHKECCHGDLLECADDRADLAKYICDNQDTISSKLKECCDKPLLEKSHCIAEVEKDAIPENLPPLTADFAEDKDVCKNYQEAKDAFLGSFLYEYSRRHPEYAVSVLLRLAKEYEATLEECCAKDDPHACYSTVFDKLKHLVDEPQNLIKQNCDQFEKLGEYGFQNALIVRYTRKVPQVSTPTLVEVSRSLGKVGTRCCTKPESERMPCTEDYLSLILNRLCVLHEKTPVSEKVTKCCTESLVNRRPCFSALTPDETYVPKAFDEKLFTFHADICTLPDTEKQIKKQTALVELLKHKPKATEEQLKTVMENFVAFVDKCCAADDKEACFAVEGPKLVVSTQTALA

[6] = target: Human CD79B Protein, His Tag (MALS verified), Cat. No. #CDB-H52H3-1mg, ACRO (human) (UniProt P40259); assay: ELISA on coated antigen, anti-myc detection; 2ug antibody added
[7] = target: T2, Mouse CD79A+CD79B antigen (mouse); assay: as above
[8] = target: Human CD79A+CD79B antigen (human) (UniProt P11912); assay: as above
[9] = target: Human CD79B Protein, His Tag (MALS verified), Cat. No. #CDB-H52H3-1mg, ACRO (human) (UniProt P40259); assay: ELISA on coated antigen, anti-myc detection; 2ng antibody added
[10] = target: T2, Mouse CD79A+CD79B antigen (mouse); assay: as above
[11] = target: Human CD79A+CD79B antigen (human) (UniProt P11912); assay: as above
BSA [12] = target: BSA (UniProt P02769); assay: ELISA on coated BSA control, anti-myc detection; 200ng antibody added
BSA [13] = target: BSA (UniProt P02769); assay: ELISA on coated BSA control, anti-myc detection; 2ng antibody added
[14] = target: Human CD79B Protein, His Tag (MALS verified), Cat. No. #CDB-H52H3-1mg, ACRO (human) (UniProt P40259); assay: ELISA on coated antigen, anti-myc detection; 20ng antibody added
[15] = target: T2, Mouse CD79A+CD79B antigen (mouse); assay: as above
[16] = target: Human CD79A+CD79B antigen (human) (UniProt P11912); assay: as above
BSA [17] = target: BSA (UniProt P02769); assay: ELISA on coated BSA control, anti-myc detection; 200pg antibody added
BSA [18] = target: BSA (UniProt P02769); assay: ELISA on coated BSA control, anti-myc detection; 20ng antibody added
[19] = target: T3, human CD79B antigen (a full-length protein containing signal peptide, UniProt ID: P40259) on cells (human, UniProt P40259 29-229); assay: flow cytometry on HEK-293T cells overexpressing CD79B-GFP, 0.1 mg/mL, APC-His tag antibody
T3 construct: whole, on cells; Used for the flow cytometry on transfected HEK-293T cells; F2A residues left at the C-terminus after cleavage are not described; also called CD79B-GFP molecule; HEK-293T cells overexpressing the CD79B-GFP molecule
T3 sequence (looked up): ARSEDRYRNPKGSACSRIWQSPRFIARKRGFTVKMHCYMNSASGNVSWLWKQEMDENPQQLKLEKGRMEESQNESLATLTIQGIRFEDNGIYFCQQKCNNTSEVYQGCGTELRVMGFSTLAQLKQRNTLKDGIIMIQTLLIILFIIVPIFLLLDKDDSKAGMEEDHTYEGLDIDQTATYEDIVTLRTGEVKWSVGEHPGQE

BSA [20] = target: BSA (UniProt P02769); assay: ELISA on coated BSA control, anti-myc detection; 2ug antibody added
[21] = target: Human CD79B Protein, His Tag (MALS verified), Cat. No. #CDB-H52H3-1mg, ACRO (human) (UniProt P40259); assay: ELISA on coated antigen, anti-myc detection; 200pg antibody added
[22] = target: T2, Mouse CD79A+CD79B antigen (mouse); assay: as above
[23] = target: Human CD79A+CD79B antigen (human) (UniProt P11912); assay: as above
[24] = target: Human CD79B Protein, His Tag (MALS verified), Cat. No. #CDB-H52H3-1mg, ACRO (human) (UniProt P40259); assay: ELISA on coated antigen, anti-myc detection; 20ug antibody added
[25] = target: T2, Mouse CD79A+CD79B antigen (mouse); assay: as above
[26] = target: Human CD79A+CD79B antigen (human) (UniProt P11912); assay: as above
Mouse CD79B antigen [27] = target: T1, Mouse CD79B antigen; assay: ELISA on coated antigen, anti-myc detection; 200ng antibody added
Mouse CD79B antigen [28] = target: T1, Mouse CD79B antigen; assay: ELISA on coated antigen, anti-myc detection; 2ug antibody added
Mouse CD79B antigen [29] = target: T1, Mouse CD79B antigen; assay: ELISA on coated antigen, anti-myc detection; 2ng antibody added
Mouse CD79B antigen [30] = target: T1, Mouse CD79B antigen; assay: ELISA on coated antigen, anti-myc detection; 20ng antibody added
Mouse CD79B antigen [31] = target: T1, Mouse CD79B antigen; assay: ELISA on coated antigen, anti-myc detection; 200pg antibody added
Mouse CD79B antigen [32] = target: T1, Mouse CD79B antigen; assay: ELISA on coated antigen, anti-myc detection; 20ug antibody added
BSA [33] = target: BSA (UniProt P02769); assay: ELISA on coated BSA control, anti-myc detection; 200µg [sic] antibody added (lowest step of the dilution series)
[34] = target: Human CD79B Protein, His Tag (MALS verified), Cat. No. #CDB-H52H3-1mg, ACRO (human) (UniProt P40259); assay: ELISA on coated antigen, anti-myc detection; 200µg [sic] antibody added (lowest step of the dilution series)
[35] = target: T2, Mouse CD79A+CD79B antigen (mouse); assay: as above
[36] = target: Human CD79A+CD79B antigen (human) (UniProt P11912); assay: as above

Binder | OD450 nm [2] [OD450] | OD450 nm [3] [OD450] | OD450 nm [4] [OD450] | OD450 nm (BSA [5]) [OD450] | OD450 nm [6] [OD450] | OD450 nm [7] [OD450] | OD450 nm [8] [OD450] | OD450 nm [9] [OD450] | OD450 nm [10] [OD450] | OD450 nm [11] [OD450] | OD450 nm (BSA [12]) [OD450] | OD450 nm (BSA [13]) [OD450] | OD450 nm [14] [OD450] | OD450 nm [15] [OD450] | OD450 nm [16] [OD450] | OD450 nm (BSA [18]) [OD450] | OD450 nm (BSA [20]) [OD450] | OD450 nm [24] [OD450] | OD450 nm [25] [OD450] | OD450 nm [26] [OD450] | other results
B1 | 0.321 | 0.0597 | 0.421 | 0.0489 | 0.346 | 0.0726 | 0.634 | 0.0507 | 0.0584 | 0.0603 | 0.0493 | 0.0474 | 0.139 | 0.0578 | 0.116 | 0.0476 | 0.0506 | 0.495 | 0.117 | 0.855 | binding result (Mouse CD79B antigen [1]): no binding (tested: 20ug); OD450 nm (BSA [17]): 0.0489 OD450; binding result [19]: binds; OD450 nm [21]: 0.0501 OD450; OD450 nm [22]: 0.0609 OD450; OD450 nm [23]: 0.0561 OD450
B2 | 0.308 | 0.068 | 1.43 | 0.0537 | 0.506 | 0.206 | 0.802 | 0.06 | 0.0543 | 0.0544 | 0.052 | 0.0474 | 0.145 | 0.0553 | 0.115 | 0.0554 | 0.0582 | 0.596 | 0.356 | 0.922 | OD450 nm (Mouse CD79B antigen [27]): 0.0622 OD450; OD450 nm (Mouse CD79B antigen [28]): 0.178 OD450; OD450 nm (Mouse CD79B antigen [29]): 0.0512 OD450; OD450 nm (Mouse CD79B antigen [30]): 0.0551 OD450; OD450 nm (BSA [17]): 0.0534 OD450; OD450 nm [21]: 0.0418 OD450; OD450 nm (Mouse CD79B antigen [31]): 0.0485 OD450; OD450 nm [22]: 0.0619 OD450; OD450 nm [23]: 0.0521 OD450; OD450 nm (Mouse CD79B antigen [32]): 0.229 OD450
B3 | 0.144 | 0.0601 | 0.224 | 0.0493 | 0.221 | 0.0788 | 0.554 | 0.0517 | 0.0584 | 0.0596 | 0.0473 | 0.0486 | 0.0739 | 0.0609 | 0.0687 | 0.0474 | 0.0482 | 0.285 | 0.126 | 0.816 | OD450 nm (Mouse CD79B antigen [27]): 0.0527 OD450; OD450 nm (Mouse CD79B antigen [28]): 0.0588 OD450; OD450 nm (Mouse CD79B antigen [29]): 0.0512 OD450; OD450 nm (Mouse CD79B antigen [30]): 0.0517 OD450; OD450 nm (BSA [17]): 0.0488 OD450; binding result [19]: binds; OD450 nm [21]: 0.0496 OD450; OD450 nm (Mouse CD79B antigen [31]): 0.0517 OD450; OD450 nm [22]: 0.0584 OD450; OD450 nm [23]: 0.0573 OD450; OD450 nm (Mouse CD79B antigen [32]): 0.0982 OD450
B4 | 0.177 | 0.0589 | 0.271 | 0.0489 | 0.303 | 0.0651 | 0.519 | 0.0528 | 0.0582 | 0.0567 | 0.048 | 0.0485 | 0.0947 | 0.0575 | 0.0778 | 0.0471 | 0.0483 | 0.379 | 0.0981 | 0.612 | binding result (Mouse CD79B antigen [1]): no binding (tested: 20ug); OD450 nm (BSA [33]): 0.0469 OD450; OD450 nm [34]: 0.0516 OD450; OD450 nm [35]: 0.0586 OD450; OD450 nm [36]: 0.0556 OD450; binding result [19]: binds
B5 | 0.375 | 0.0567 | 0.421 | 0.0488 | 0.485 | 0.0549 | 0.585 | 0.0519 | 0.0574 | 0.063 | 0.049 | 0.0479 | 0.15 | 0.0572 | 0.172 | 0.0499 | 0.0479 | 0.552 | 0.049 | 0.658 | binding result (Mouse CD79B antigen [1]): no binding (tested: 20ug); OD450 nm (BSA [17]): 0.0476 OD450; binding result [19]: binds; OD450 nm [21]: 0.0521 OD450; OD450 nm [22]: 0.0601 OD450; OD450 nm [23]: 0.0577 OD450
